Here are results for one molecule from article PMC12557302.

This series has as its target CD36 on human monocytes / monocyte membrane extract (Homo sapiens, UniProt P16671 1-472). Description: pull-down with mass spectrometry.

Sequence of CD36 on human monocytes / monocyte membrane extract (P16671 whole entry): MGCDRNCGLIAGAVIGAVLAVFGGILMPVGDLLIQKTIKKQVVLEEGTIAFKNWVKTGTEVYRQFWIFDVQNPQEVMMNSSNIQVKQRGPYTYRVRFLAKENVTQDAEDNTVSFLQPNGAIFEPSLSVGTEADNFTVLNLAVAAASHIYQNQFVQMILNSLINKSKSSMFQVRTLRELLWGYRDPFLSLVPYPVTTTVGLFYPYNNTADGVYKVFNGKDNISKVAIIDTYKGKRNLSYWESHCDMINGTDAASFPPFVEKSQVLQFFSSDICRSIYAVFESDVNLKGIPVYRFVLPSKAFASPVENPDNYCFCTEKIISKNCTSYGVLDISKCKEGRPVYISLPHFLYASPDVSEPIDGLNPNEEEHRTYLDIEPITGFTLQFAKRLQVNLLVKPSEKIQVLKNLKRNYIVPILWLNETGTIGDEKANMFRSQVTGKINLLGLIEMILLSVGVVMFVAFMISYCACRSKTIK

B1: CD36Apt (Mono.A2) (ssDNA)
DNA: ATCCAGAGTGACGCAGCAGAAGAGTAGATGAAACGTTTTTTCGCCCGATAAAAGGGACGTGCGTCAGACATGGACACGGTGGCTTAGT
For the molecule B1, the binding result is “binds”.
